Assay results as given in patent US20210155676A1 (Gilead, published 2021).
Changes are numbered by the printed parent chain.

Legend:
HIV-1 BaL Env (on virus) = HIV-1 BaL Env (on virus) (HIV-1 strain BaL); assay: cell-based or functional assay
[1] = target: HIV-1 93HT593 Env (on virus) (HIV-1 isolate 93HT593); assay: cell-based or functional assay
[2] = target: HIV-1 92US657 Env (on virus) (HIV-1 isolate 92US657); assay: cell-based or functional assay
[3] = target: HIV-1 92US712 Env (on virus) (HIV-1 isolate 92US712); assay: cell-based or functional assay
[4] = target: HIV-1 92US727 Env (on virus) (HIV-1 isolate 92US727); assay: cell-based or functional assay
[5] = target: human FcγRIIIA on primary NK effector cells (human, UniProt P08637 17-254); assay: cell-based or functional assay
Chain of human FcγRIIIA on primary NK effector cells (P08637 17-254): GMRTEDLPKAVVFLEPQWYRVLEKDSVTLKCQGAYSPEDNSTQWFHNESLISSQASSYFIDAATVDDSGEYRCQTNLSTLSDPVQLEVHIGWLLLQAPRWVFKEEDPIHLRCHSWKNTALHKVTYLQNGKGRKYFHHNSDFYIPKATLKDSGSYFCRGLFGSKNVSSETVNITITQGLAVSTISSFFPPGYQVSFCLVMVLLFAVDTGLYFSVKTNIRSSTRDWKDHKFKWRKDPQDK

Human FcRn [6] = target: T1, Human FcRn (human, UniProt P55899 24-297; P61769 21-119); assay: ELISA, FcRn coated on plate, pH 6.0
T1 construct: also called neonatal Fc receptor
T1 sequence (P55899 24-297 limits assumed, chain 1 of 2): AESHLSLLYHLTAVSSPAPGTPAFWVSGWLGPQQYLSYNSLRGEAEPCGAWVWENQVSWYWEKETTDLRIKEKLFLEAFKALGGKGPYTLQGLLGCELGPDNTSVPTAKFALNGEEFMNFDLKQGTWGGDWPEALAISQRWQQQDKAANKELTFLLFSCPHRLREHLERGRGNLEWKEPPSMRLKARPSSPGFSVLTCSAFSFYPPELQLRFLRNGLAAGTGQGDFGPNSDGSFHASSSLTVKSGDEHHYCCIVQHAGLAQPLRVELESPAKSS
T1 sequence (P61769 21-119 limits assumed, chain 2 of 2): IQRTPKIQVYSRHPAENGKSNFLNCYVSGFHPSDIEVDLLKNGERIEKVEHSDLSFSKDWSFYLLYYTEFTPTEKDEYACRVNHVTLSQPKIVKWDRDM
Method: (§1) The binding of antibodies to FcRn of various species at different pHs was determined. A 96-well Maxisorp plate was coated with 100 ul of 5 μg/ml FcRn. The plate was incubated overnight at 4° C., and then blocked with 4% skim milk for 2 hr at room temperature after washing 3 times with 0.05% Tween 20 washing buffer. The plate was incubated with 3 fold serial dilution of primary antibody for 1 hr at room temperature. The plate was then washed 3 times and 100 of Fab-anti-human Fab-HRP or Goat anti-human IgG-HRP secondary antibody diluted in 4% skimmed milk was added. Plates were then incubated 50 min at room temperature, washed three times, and 100 μL fresh TMB substrate was added. Plates were developed for 3 minutes on bench with gentle shaking. Plate was quenched with 100 μL 1M HCl, shaken briefly, read at A450 on a spectramax m5 plate reader.

Human FcRn [7] = target: T1, Human FcRn; assay: ELISA, FcRn coated on plate, pH 7.0
Method: as §1

Human FcRn [8] = target: T1, Human FcRn; assay: ELISA, pH 7.0/6.0 ratio relative to PGT121
Method: as §1

Human FcRn [9] = target: T1, Human FcRn; assay: ELISA, ratio of EC50 at pH 7.0 to EC50 at pH 6.0
Method: as §1

B1: PGT121.60 hIgG1/hLambda (antibody)
heavy: QMQLQESGPGLVKPSETLSLTCSVSGASISDSYWSWIRRSPGKGLEWIGYVHKSGDTNYNPSLKSRVHLSLDTSKNQVSLSLTGVTAADSGKYYCARTLHGRRIYGIVAFNEWFTYFYMDVWGTGTQVTVSSASTKGPSVFPLAPSSKSTSGGTAALGCLVKDYFPEPVTVSWNSGALTSGVHTFPAVLQSSGLYSLSSVVTVPSSSLGTQTYICNVNHKPSNTKVDKKVEPKSCDKTHTCPPCPAPELLAGPDVFLFPPKPKDTLMISRTPEVTCVVVDVSHEDPEVKFNWYVDGVEVHNAKTKPREEQYNSTYRVVSVLTVLHQDWLNGKEYKCKVSNKALPLPEEKTISKAKGQPREPQVYTLPPSREEMTKNQVSLTCLVKGFYPSDIAVEWESNGQPENNYKTTPPVLDSDGSFFLYSKLTVDKSRWQQGNVFSCSVLHEALHSHYTQKSLSLSPGK
light: not shown
- neutralization IC50, HIV-1 BaL, CEM.NKr.CCR5.Luc assay (HIV-1 BaL Env (on virus)): 7 ng/mL
- neutralization IC50, HIV-1 HT593, CEM.NKr.CCR5.Luc assay [1]: 141 ng/mL
- neutralization IC50, HIV-1 US657, CEM.NKr.CCR5.Luc assay [2]: 62 ng/mL
- neutralization IC50, HIV-1 US712, CEM.NKr.CCR5.Luc assay [3]: 8 ng/mL
- neutralization IC50, HIV-1 US727, CEM.NKr.CCR5.Luc assay [4]: 7 ng/mL

B2: PGT121.61 hIgG1/hLambda (antibody)
heavy: B1 heavy
light: SDISVAPGETARISCGEKSLGSRAVQWYQHRAGQAPSLIIYNNQDRPSGIPERFSGSPDSRPGTTATLTITSVEAGDEADYYCHIWDSRVPTKWVFGGGTKLTVLGQPKAAPSVTLFPPSSEELQANKATLVCLISDFYPGAVTVAWKADSSPVKAGVETTTPSKQSNNKYAASSYLSLTPEQWKSHRSYSCQVTHEGSTVEKTVAPTECS
- neutralization IC50, HIV-1 BaL, CEM.NKr.CCR5.Luc assay (HIV-1 BaL Env (on virus)): 8 ng/mL
- neutralization IC50, HIV-1 HT593, CEM.NKr.CCR5.Luc assay [1]: 343 ng/mL
- neutralization IC50, HIV-1 US657, CEM.NKr.CCR5.Luc assay [2]: 72 ng/mL
- neutralization IC50, HIV-1 US712, CEM.NKr.CCR5.Luc assay [3]: 8 ng/mL
- neutralization IC50, HIV-1 US727, CEM.NKr.CCR5.Luc assay [4]: 5 ng/mL

B3: PGT121.65 hIgG1/hLambda (antibody)
heavy: B1 heavy with M2L, S32A, T98A
light: B2 light
- ADCC AUC, NK donor A4813, primary CD4+ T cells infected with HT593 [5]: 158
- ADCC AUC, NK donor A4813, primary CD4+ T cells infected with US657 [5]: 190
- ADCC EC50, NK donor A4813, primary CD4+ T cells infected with HT593 [5]: 2.6 nM
- ADCC EC50, NK donor A4813, primary CD4+ T cells infected with US657 [5]: 3.2 nM
- ADCC Emax, NK donor A4813, primary CD4+ T cells infected with HT593 [5]: 71%
- ADCC Emax, NK donor A4813, primary CD4+ T cells infected with US657 [5]: 75%
- EC50 (Human FcRn [6]): 0.57 nM
- EC50 (Human FcRn [7]): 104 nM
- Fold vs PGT121 (Human FcRn [8]): 6 fold
- Ratio pH 7.0/6.0 (Human FcRn [9]): 182

B4: PGT121.56 hIgG1/hLambda (antibody)
heavy: B1 heavy with N60S, H68N, T83V, G84A, V85A, T124N
light: not shown
- ADCC AUC, NK donor A4813, primary CD4+ T cells infected with HT593 [5]: 161
- ADCC AUC, NK donor A4813, primary CD4+ T cells infected with US657 [5]: 219
- ADCC EC50, NK donor A4813, primary CD4+ T cells infected with HT593 [5]: 6.3 nM
- ADCC Emax, NK donor A4813, primary CD4+ T cells infected with HT593 [5]: 72%
- ADCC Emax, NK donor A4813, primary CD4+ T cells infected with US657 [5]: 71%
- EC50 (Human FcRn [6]): 0.47 nM
- EC50 (Human FcRn [7]): 102 nM

B5: PGT121.61 hIgG1/hLambda (antibody)
heavy: B1 heavy
light: B2 light
- ADCC AUC, NK donor A4813, primary CD4+ T cells infected with HT593 [5]: 169
- ADCC AUC, NK donor A4813, primary CD4+ T cells infected with US657 [5]: 190
- ADCC EC50, NK donor A4813, primary CD4+ T cells infected with HT593 [5]: 2.2 nM
- ADCC EC50, NK donor A4813, primary CD4+ T cells infected with US657 [5]: 1.3 nM
- ADCC Emax, NK donor A4813, primary CD4+ T cells infected with HT593 [5]: 70%
- ADCC Emax, NK donor A4813, primary CD4+ T cells infected with US657 [5]: 72%
- EC50 (Human FcRn [6]): 0.13 nM
- EC50 (Human FcRn [7]): 140 nM
- Fold vs PGT121 (Human FcRn [8]): 33 fold
- Ratio pH 7.0/6.0 (Human FcRn [9]): 1070

B6: PGT121.42 hIgG1/hLambda (antibody)
heavy: B1 heavy with T83S, G84S, T124K
light: not shown
notes: also called PTG121.42
- ADCC AUC, NK donor A4813, primary CD4+ T cells infected with HT593 [5]: 191
- ADCC AUC, NK donor A4813, primary CD4+ T cells infected with US657 [5]: 222
- ADCC EC50, NK donor A4813, primary CD4+ T cells infected with HT593 [5]: 4.9 nM
- ADCC EC50, NK donor A4813, primary CD4+ T cells infected with US657 [5]: 1.4 nM
- ADCC Emax, NK donor A4813, primary CD4+ T cells infected with HT593 [5]: 71%
- ADCC Emax, NK donor A4813, primary CD4+ T cells infected with US657 [5]: 72%
- EC50 (Human FcRn [6]): 0.41 nM
- EC50 (Human FcRn [7]): 69.8 nM
- Fold vs PGT121 (Human FcRn [8]): 5 fold
- Ratio pH 7.0/6.0 (Human FcRn [9]): 170

B7: PGT121.64 hIgG1/hLambda (antibody)
heavy: B1 heavy with M2L, S32A, T98A
light: not shown
- ADCC AUC, NK donor A4813, primary CD4+ T cells infected with HT593 [5]: 167
- ADCC AUC, NK donor A4813, primary CD4+ T cells infected with US657 [5]: 188
- ADCC EC50, NK donor A4813, primary CD4+ T cells infected with HT593 [5]: 1.4 nM
- ADCC EC50, NK donor A4813, primary CD4+ T cells infected with US657 [5]: 1.6 nM
- ADCC Emax, NK donor A4813, primary CD4+ T cells infected with HT593 [5]: 66%
- ADCC Emax, NK donor A4813, primary CD4+ T cells infected with US657 [5]: 70%
- EC50 (Human FcRn [6]): 1.59 nM
- EC50 (Human FcRn [7]): 125 nM
- Fold vs PGT121 (Human FcRn [8]): 2 fold
- Ratio pH 7.0/6.0 (Human FcRn [9]): 79
